Laboratory results: US6936431 (dated 2005)
Several values for one entry are separate records, joined by “and”; a condition that tells them apart may be missing. Equal values may be shown once. Read-outs that look alike come from different tables or passages of the source.

How the values were obtained:
[1] = biological target: T1, rat brain farnesyl:protein transferase (rat, UniProt Q04631 2-377; Q02293 1-437); experiment: farnesyltransferase activity inhibition; FIG. 10B
[2] = biological target: T1, rat brain farnesyl:protein transferase; experiment: farnesyltransferase activity inhibition; FIG. 12A
[3] = biological target: T1, rat brain farnesyl:protein transferase; experiment: farnesyltransferase activity inhibition; FIG. 12B
[4] = biological target: T1, rat brain farnesyl:protein transferase
[5] = biological target: T1, rat brain farnesyl:protein transferase; experiment: farnesyltransferase activity inhibition; FIG. 11
[6] = biological target: T1, rat brain farnesyl:protein transferase; experiment: farnesyltransferase activity inhibition; FIG. 10A
[7] = biological target: T1, rat brain farnesyl:protein transferase; experiment: farnesyltransferase activity inhibition; FIG. 10C

With CVIK [CVIM with lysine at the X position (CVIK)] the Ki [1] was over 30000 nM.

Work on CVFM yielded a Ki [2] of 10 nM and a Ki [3] of 35 nM.

With CVIM [CVIM (COOH-terminal tetrapeptide of p21^K-rasB)] the Ki [4] was 350 nM and 200 nM.

CFIM showed a Ki [5] of 500 nM.

Work on CVIA [CVIA (COOH-terminal tetrapeptide of a-Mating factor)] yielded a Ki [6] of 4000 nM.

With CLIM the Ki [7] was 80 nM.

In the case of CVAM, the Ki [6] is reported as 6000 nM.

CVKM [CVIM with lysine at the A2 position (CVKM)] was tested, and the Ki [1] was over 30000 nM.

Work on CVLM yielded a Ki [7] of 200 nM.

Binder CVIL [CVIL (COOH-terminal tetrapeptide of rap2b)] has a Ki [7] of 10500 nM.
